Source: patent US20230301926A1 (EVOX THERAPEUTICS, published 2023)

Assays:
mouse serum albumin = target: T1, mouse serum albumin (mouse, UniProt P07724 25-608); experiment: EVs recovered from mouse serum 10 min after injection, gradient separation and dot-blot with anti-mouse serum albumin antibody
T1 construct: Albumin picked up by the EVs in the circulation of the mice
Description: Mice were injected with mCD63-ABD-2nd loop Nluc HEK EVs or mCD63-Nluc (no ABD control). Serum was collected 10 minutes after injection and purified with size-exclusion columns (qEV) to isolate EVs. 2.5×10¹⁰ EVs were then incubated overnight at 4° C. with an antibody anti-mouse serum albumin (labelled with FITC) and a mix of tetraspanin antibodies (human specific CD9, CD63 and CD81, 1:100) labelled with Alexa Fluor 647. The next day, EVs were separated by Optiprep gradient ultracentrifugation and 300 µl fractions were collected, 100 µl from each fraction were used for DOTBLOT analysis and 50 µl from three subsequent fractions were pulled and used for imaging (widefield)

[1] = target: T2, human serum albumin (labelled with Alexa Fluor 488) (human, UniProt P02768 25-609, Alexa Fluor 488 label (site not stated)); experiment: Optiprep gradient and dot-blot of 4e10 HEK EVs incubated with 80 µg/ml Alexa Fluor 488 HSA
T2 construct: Used at 80 µg/ml in the Optiprep gradient / dot-blot assays; also called HSA
T2 sequence (P02768 25-609 limits assumed): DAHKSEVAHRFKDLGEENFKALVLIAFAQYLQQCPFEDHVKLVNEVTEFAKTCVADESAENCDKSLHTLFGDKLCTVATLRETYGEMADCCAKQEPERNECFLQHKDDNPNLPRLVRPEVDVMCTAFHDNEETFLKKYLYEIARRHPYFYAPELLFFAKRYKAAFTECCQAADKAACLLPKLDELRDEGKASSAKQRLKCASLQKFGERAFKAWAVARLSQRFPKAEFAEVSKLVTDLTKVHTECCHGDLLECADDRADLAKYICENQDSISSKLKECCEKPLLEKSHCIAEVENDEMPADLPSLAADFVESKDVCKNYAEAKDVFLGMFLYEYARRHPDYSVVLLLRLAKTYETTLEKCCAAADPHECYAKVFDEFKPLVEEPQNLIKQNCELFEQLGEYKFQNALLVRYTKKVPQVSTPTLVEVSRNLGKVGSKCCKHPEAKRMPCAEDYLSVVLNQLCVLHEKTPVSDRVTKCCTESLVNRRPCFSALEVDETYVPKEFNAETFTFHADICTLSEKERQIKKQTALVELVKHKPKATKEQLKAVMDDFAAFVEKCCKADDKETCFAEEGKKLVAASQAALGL
Description: This experiment was performed by incubating overnight at 4° C. 4e¹⁰ HEK EVs expressing the constructs detailed above with 80 µg/ml human serum albumin (labelled with Alexa Fluor 488) and a mix of tetraspanin antibody. The next day, EVs were separated by Optiprep gradient ultracentrifugation and 300 µl fractions were collected, 100 µl from each fraction were used for DOTBLOT analysis and 50 µl from three subsequent fractions were pulled and used for imaging (widefield and dSTORM) […] (CD9, CD63 and CD81, 1:100) labelled with Alexa […].

FITC-human albumin = target: T3, FITC-human albumin (human, UniProt P02768 25-609, FITC label (site not stated)); experiment: in vitro albumin binding assay, protocol of Example 7
T3 construct: also called fluorescein isothiocyanate (FITC)-labeled albumin; FITC-albumin
T3 sequence (P02768 25-609 limits assumed): as above

[2] = target: T2, human serum albumin (labelled with …); experiment: Optiprep gradient ultracentrifugation and dot-blot of EVs incubated with Alexa Fluor 488 HSA
Description: Gradient separation was performed to assess the binding of albumin to EVs expressing ABD on the surface. The fusion constructs tested were: [0235] mCD63-Nluc (concentration: 1.37×10¹² particles/ml) [0236] mCD63-ABD-2nd loop Nluc (concentration: 6.5×10¹¹ particles/ml)
HEK EVs with albumin binding domain fused to different or both CD63 loops were incubated overnight at 4° C. 5 µl with 80 µg/ml human serum albumin (labelled with Alexa Fluor 488) and a mix of tetrspanin antibodies (CD9, CD63 and CD81, 1:100) labelled with Alexa Fluor 647. The next day, EVs were separated by Optiprep gradient ultracentrifugation and 300 µl fractions were collected, 100 µl from each fraction were used for DOTBLOT analysis and 50 µl from three subsequent fractions were pooled and used for imaging (widefield and dSTORM)

Binder | binding result [1] | also measured
mCD63-ABD 2nd loop-NanoLuc (other, also called mCD63-ABD-2nd loop Nluc; mCD63-ABD 2nd loop-Nluc) MAVEGGMKCVKFLLYVLLLAFCACAVGLIAIGVAVQVVLKQAMHITHETTAGSLLPVVIIAVGAFLFLVAFVGCCGACKENYCLMITFAIFLSLIMLVEVAVAIAGYVFRDQVKSEFNKSFQQQMQNYLKDNKTATILDKLQKENNCCGATRRTQHDEAVDANSLAEAKVLANRELDKYGVSDFYKRLINKAKTVEGVEALKLHILAALPRTCTSGTRSNYTDWENIPGMAKDRVPDSCCINITVGCGNDFKESTIHTQGCVETIAIWLRKNILLVAAAALGIAFVEVLGIIFSCCLVKSIRSGYEVMGSGSGSGSGSVFTLEDFVGDWRQTAGYNLDQVLEQGGVSSLFQNLGVSVTPIQRIVLSGENGLKIDIHVIIPYEGLSGDQMGQIEKIFKVVYPVDDHHFKVILHYGTLVIDGVTPNMIDYFGRPYEGIAVFDGKKITVTGTLWNGNKIIDERLINPDGSLLFRVTINGVTGWRLCERILAHHHHHH | – | binding result (mouse serum albumin): binds
hCD81-ABD-1stloop-Nluc (other, also called hCD81-ABD 1 st-Nluc) MGVEGCTKCIKYLLFVFNFVFWLAGGVILGVALWLRHDPQTTNLLYLEMHLAEAKVLANRELDKYGVSDFYKRLINKAKTVEGVEALKLHILAALPMHLGDKPAPNTFYVGIYILIAVGAVMMFVGFLGCYGAIQESQCLLGTFFTCLVILFACEVAAGIWGFVNKDQIAKDVKQFYDQALQQAVVDDDANNAKAVVKTFHETLDCCGSTRSTLTALTTSVLKNNLCPSGSNIISNLFKEDCHQKIDDLFSGKLYLIGIAAIVVAVIMIFEMILSMVLCCGIRNSSVYGSVFTLEDFVGDWRQTAGYNLDQVLEQGGVSSLFQNLGVSVTPIQRIVLSGENGLKIDIHVIIPYEGLSGDQMGQIEKIFKVVYPVDDHHFKVILHYGTLVIDGVTPNMIDYFGRPYEGIAVFDGKKITVTGTLWNGNKIIDERLINPDGSLLFRVTINGVTGWRLCERILA | binds | –
hCD81-ABD-2ndloop-Nluc (other, also called hCD81-ABD 2 nd-Nluc) MGVEGCTKCIKYLLFVFNFVFWLAGGVILGVALWLRHDPQTTNLLYLEMHLGDKPAPNTFYVGIYILIAVGAVMMFVGFLGCYGAIQESQCLLGTFFTCLVILFACEVAAGIWGFVNKDQIAKDVKQFYDQALQQAVVDDDANNAKAVVKTFHETLDCCGSTRQHDEAVDANSLAEAKVLANRELDKYGVSDFYKRLINKAKTVEGVEALKLHILAALPTRSTLTALTTSVLKNNLCPSGSNIISNLFKEDCHQKIDDLFSGKLYLIGIAAIVVAVIMIFEMILSMVLCCGIRNSSVYGSVFTLEDFVGDWRQTAGYNLDQVLEQGGVSSLFQNLGVSVTPIQRIVLSGENGLKIDIHVIIPYEGLSGDQMGQIEKIFKVVYPVDDHHFKVILHYGTLVIDGVTPNMIDYFGRPYEGIAVFDGKKITVTGTLWNGNKIIDERLINPDGSLLFRVTINGVTGWRLCERILA | binds | –
hCD81-ABD-2x-Nluc (ABD present in both loops) (other, also called hCD81-ABDX2-Nluc) MGVEGCTKCIKYLLFVFNFVFWLAGGVILGVALWLRHDPQTTNLLYLEMHLAEAKVLANRELDKYGVSDFYKRLINKAKTVEGVEALKLHILAALPMHLGDKPAPNTFYVGIYILIAVGAVMMFVGFLGCYGAIQESQCLLGTFFTCLVILFACEVAAGIWGFVNKDQIAKDVKQFYDQALQQAVVDDDANNAKAVVKTFHETLDCCGSTRQHDEAVDANSLAEAKVLANRELDKYGVSDFYKRLINKAKTVEGVEALKLHILAALPTRSTLTALTTSVLKNNLCPSGSNIISNLFKEDCHQKIDDLFSGKLYLIGIAAIVVAVIMIFEMILSMVLCCGIRNSSVYGSVFTLEDFVGDWRQTAGYNLDQVLEQGGVSSLFQNLGVSVTPIQRIVLSGENGLKIDIHVIIPYEGLSGDQMGQIEKIFKVVYPVDDHHFKVILHYGTLVIDGVTPNMIDYFGRPYEGIAVFDGKKITVTGTLWNGNKIIDERLINPDGSLLFRVTINGVTGWRLCERILA | binds | –
hCD9-ABD-1stloop-Nluc (other, also called hCD9-ABD 1 st-Nluc) MPVKGGTKCIKYLLFGFNFIFWLAGIAVLAIGLWLRFDSQTKSIMHLAEAKVLANRELDKYGVSDFYKRLINKAKTVEGVEALKLHILAALPMHFEQETNNNNSSFYTGVYILIGAGALMMLVGFLGCCGAVQESQCMLGLFFGFLLVIFAIEIAAAIWGYSHKDEVIKEVQEFYKDTYNKLKTKDEPQRETLKAIHYALNCCGLTRAGGVEQFISDICPKKDVLETFTVKSCPDAIKEVFDNKFHIIGAVGIGIAVVMIFGMIFSMILCCAIRRNREMVGSVFTLEDFVGDWRQTAGYNLDQVLEQGGVSSLFQNLGVSVTPIQRIVLSGENGLKIDIHVIIPYEGLSGDQMGQIEKIFKVVYPVDDHHFKVILHYGTLVIDGVTPNMIDYFGRPYEGIAVFDGKKITVTGTLWNGNKIIDERLINPDGSLLFRVTINGVTGWRLCERILA | binds | –
hCD9-ABD-2ndloop-Nluc (other, also called hCD9-ABD 2 nd-Nluc) MPVKGGTKCIKYLLFGFNFIFWLAGIAVLAIGLWLRFDSQTKSIMHFEQETNNNNSSFYTGVYILIGAGALMMLVGFLGCCGAVQESQCMLGLFFGFLLVIFAIEIAAAIWGYSHKDEVIKEVQEFYKDTYNKLKTKDEPQRETLKAIHYALNCCGLTRQHDEAVDANSLAEAKVLANRELDKYGVSDFYKRLINKAKTVEGVEALKLHILAALPTRAGGVEQFISDICPKKDVLETFTVKSCPDAIKEVFDNKFHIIGAVGIGIAVVMIFGMIFSMILCCAIRRNREMVGSVFTLEDFVGDWRQTAGYNLDQVLEQGGVSSLFQNLGVSVTPIQRIVLSGENGLKIDIHVIIPYEGLSGDQMGQIEKIFKVVYPVDDHHFKVILHYGTLVIDGVTPNMIDYFGRPYEGIAVFDGKKITVTGTLWNGNKIIDERLINPDGSLLFRVTINGVTGWRLCERILA | binds | –
hCD9-ABD-2x-Nluc (ABD present in both loops) (other, also called hCD9-ABDX2-Nluc) MPVKGGTKCIKYLLFGFNFIFWLAGIAVLAIGLWLRFDSQTKSIMHLAEAKVLANRELDKYGVSDFYKRLINKAKTVEGVEALKLHILAALPMHFEQETNNNNSSFYTGVYILIGAGALMMLVGFLGCCGAVQESQCMLGLFFGFLLVIFAIEIAAAIWGYSHKDEVIKEVQEFYKDTYNKLKTKDEPQRETLKAIHYALNCCGLTRQHDEAVDANSLAEAKVLANRELDKYGVSDFYKRLINKAKTVEGVEALKLHILAALPTRAGGVEQFISDICPKKDVLETFTVKSCPDAIKEVFDNKFHIIGAVGIGIAVVMIFGMIFSMILCCAIRRNREMVGSVFTLEDFVGDWRQTAGYNLDQVLEQGGVSSLFQNLGVSVTPIQRIVLSGENGLKIDIHVIIPYEGLSGDQMGQIEKIFKVVYPVDDHHFKVILHYGTLVIDGVTPNMIDYFGRPYEGIAVFDGKKITVTGTLWNGNKIIDERLINPDGSLLFRVTINGVTGWRLCERILA | binds | –
Lamp2b-ABD-NanoLuc (other, also called Lamp2B-ABD-Nluc; Lamp2b-ABD-Nluc) LKFEQHDEAVDANSLAEAKVLANRELDKYGVSDFYKRLINKAKTVEGVEALKLHILAALPFETGGAPMHISQAVHAAHAEINEAGRSIINFEKLCTSVYDFFVWLGRGHLLGRLAAIVGKQVLLGRKVVVVRSHCHWNDLAVIPAGVVHNWDFEPRKVSPSKPSFQEFVDWENVSPELNSTDQPFLCTGSGSGSGSGSLKPAGILIPIIVGAGLSGLIIVIVIAYVIGRRKSYAGAQTLGGGGSYIPEAPRDGQAYVRKDGEWVLLSTFLSPANGTPTPTPTPTGRSLYPSLEDLKVDKVIQAQTAFSANPANPAILSEASAPIPHDGNLYPRLYPELSQYMGLSLEGGQLGTPTPTPTPTGGSVFTLEDFVGDWRQTAGYNLDQVLEQGGVSSLFQNLGVSVTPIQRIVLSGENGLKIDIHVIIPYEGLSGDQMGQIEKIFKVVYPVDDHHFKVILHYGTLVIDGVTPNMIDYFGRPYEGIAVFDGKKITVTGTLWNGNKIIDERLINPDGSLLFRVTINGVTGWRLCERILA | binds | binding result (FITC-human albumin): binds
mCD63-NanoLuc (other, Control fusion of CD63 and nanoluc reporter lacking ABD, carried on EVs in the assays; His tag of the entry is called optional; also called mCD63-Nluc; control EVs) MAVEGGMKCVKFLLYVLLLAFCACAVGLIAIGVAVQVVLKQAMHITHETTAGSLLPVVIIAVGAFLFLVAFVGCCGACKENYCLMITFAIFLSLIMLVEVAVAIAGYVFRDQVKSEFNKSFQQQMQNYLKDNKTATILDKLQKENNCCGATRSNYTDWENIPGMAKDRVPDSCCINITVGCGNDFKESTIHTQGCVETIAIWLRKNILLVAAAALGIAFVEVLGIIFSCCLVKSIRSGYEVMGSGSGSGSGSVFTLEDFVGDWRQTAGYNLDQVLEQGGVSSLFQNLGVSVTPIQRIVLSGENGLKIDIHVIIPYEGLSGDQMGQIEKIFKVVYPVDDHHFKVILHYGTLVIDGVTPNMIDYFGRPYEGIAVFDGKKITVTGTLWNGNKIIDERLINPDGSLLFRVTINGVTGWRLCERILAHHHHHH | – | binding result [2]: no binding (tested: 80 µg/ml human serum albumin)
